Assay [1] deals with T1, CXC motif chemokine receptor 4 (CXCR4) (human, UniProt P61073 1-352).
T1 construct: whole, on cells; In the assays CXCR4 is the endogenous receptor of human cells; also called chemokine receptor CXCR4; endogenous CXCR4
Put plainly: laser confocal imaging of SJSA-1 cells: membrane puncta only with ligand-fused domains; the receptor was not stained in this example. On the procedure: (§1) Human osteosarcoma SJSA-1 cells (purchased from ATCC (https://www.atcc.org/)) were treated with the above-labeled recombinant proteins or control solution, and then immediately subjected to laser confocal scanning microscopy imaging. The steps are as follows:
(§2) Human osteosarcoma cell line SJSA-1 was cultured in RMPI-1640 medium containing 10% fetal bovine serum (FBS, purchased from Gibco) and 1× penicillin-streptomycin (purchased from HyClone) to 70%-80% confluence. The following combinations of recombinant proteins were added to the culture medium at the same time: (1) (SIM)₆-R4L (Red) and (SUM)₅ (Green), (2) (SIM)₆ (Red) and (SUM)₅-TRAIL (Green), (3) (SIM)₆-R4L (Red) and (SUM)₅-TRAIL (Green), (4) (SIM)₆ (Red) and (SUM)₅ (Green), to a final concentration of 100 nM respectively. The culture medium after adding the recombinant protein was mixed, incubated at 37° C. for about 1 min, and then imaged using a NIKON AIR HD25 laser confocal microscope (purchased from Nikon, Inc.).

The target in assay [2] is T2, multivalent domain (SUM)5 (Alexa647 label in the imaging experiment (site not stated)).
T2 construct: also called (SUM)5 (Green)
Put plainly: laser confocal imaging of SJSA-1 cells with (SIM)6-R4L (Red) and (SUM)5 (Green), 100 nM each (combination 1, FIG. 2A); co-localization. The method, then:
as §1, §2

Assay [3] deals with T3, recombinant protein (SUM)5-DNB (Alexa647 label in the imaging experiment (site not stated)).
T3 construct: Fusion of a multivalent domain with a nanobody; also called (SUM)5-DNB (Green)
In words: fluorescence imaging of SJSA-1 cells, 100 nM each; co-localization (FIG. 3A, 3B). From the text:
(§3) Wherein, “Anti DR5” and “Anti CXCR4” respectively represent the fluorescence images of endogenous DR5 and CXCR4 obtained by immunofluorescence staining with DR5 antibody (Abcam, ab8416) and CXCR4 antibody (Protein Tech, 60042-1-Ig). […] The horizontal axis represents the relative distance along the straight path, and the vertical axis represents the relative fluorescence intensity measured at the corresponding position. […] From left to right, they correspond to treatment groups 1 to 3 listed in Example 2. […] The horizontal axis represents various recombinant protein treatment combinations with a final concentration of 100 nM. The vertical axis represents the fluorescence area corresponding to each spot.
(§4) The above recombinant protein combinations were added to the culture medium to a final concentration of 100 nM. The added culture medium was mixed, incubated at 37° C. for about 1 min, and then imaged by total internal reflection fluorescence microscopy (TIRF).

Assay [4] concerns the target T1, CXC motif chemokine receptor 4 (CXCR4). Put plainly: immunofluorescence of endogenous CXCR4 on SJSA-1 cells with labelled fusion proteins; co-localization (FIG. 3A, 3B).
Excerpt: as §3, §4

For assay [5], the target named is T4, recombinant protein (SUM)3-DNB (Alexa647 label in the imaging experiment only (site not stated); no label is stated for the apoptosis assays).
T4 construct: Fusion of a multivalent domain with a nanobody; also called (SUM)3-DNB (Green); fusion protein (SUM)3-DNB
Put plainly: fluorescence imaging of SJSA-1 cells; co-localization (FIG. 5A, 5B).
Excerpt: (§5) Wherein, “Anti-DR5” and “Anti-CXCR4” respectively represent the fluorescence images of endogenous DR5 and CXCR4 obtained by immunofluorescence staining with DR5 antibody (Abcam, Catalog No. ab8416) and CXCR4 antibody (Protein Tech, Catalog No. 60042-1-Ig). […] The horizontal axis represents the relative distance along the straight path, and the vertical axis represents the relative fluorescence intensity measured at the corresponding position. […] The horizontal axis represents various recombinant protein treatment combinations with a final concentration of 100 nM. The vertical axis represents the fluorescence area corresponding to each spot.
as §4
(§6) By the same method as in Example 2, the total internal reflection fluorescence microscopy (TIRF) imaging of the following recombinant protein combination against the human osteosarcoma cell line SJSA-1 was measured, and the results are shown in FIG. 5: [0136] Treatment group: combination of (SIM)₃-CNB (Red) and (SUM)₃-DNB (Green) [0137] Control group: combination of (SIM)₃ (Red) and (SUM)₃ (Green)

Assay [6] concerns the target T1, CXC motif chemokine receptor 4 (CXCR4). Put plainly: immunofluorescence of endogenous CXCR4 on SJSA-1 cells with labelled fusion proteins; co-localization (FIG. 5A, 5B).
Excerpt: as §5, §4, §6

The results in this text go back to patent publication US20260265392A1 (TSINGHUA UNIVERSITY, published 2026).

T1 sequence (P61073 whole entry): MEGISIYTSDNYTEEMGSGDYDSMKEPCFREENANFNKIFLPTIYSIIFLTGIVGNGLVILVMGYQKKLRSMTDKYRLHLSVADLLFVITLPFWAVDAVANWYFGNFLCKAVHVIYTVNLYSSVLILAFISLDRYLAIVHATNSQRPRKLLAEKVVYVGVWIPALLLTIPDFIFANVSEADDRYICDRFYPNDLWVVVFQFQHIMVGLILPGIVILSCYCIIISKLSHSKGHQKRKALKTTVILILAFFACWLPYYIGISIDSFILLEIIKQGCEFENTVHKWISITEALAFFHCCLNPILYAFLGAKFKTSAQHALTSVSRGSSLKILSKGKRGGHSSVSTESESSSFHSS
T4 sequence (chain, as listed by the source): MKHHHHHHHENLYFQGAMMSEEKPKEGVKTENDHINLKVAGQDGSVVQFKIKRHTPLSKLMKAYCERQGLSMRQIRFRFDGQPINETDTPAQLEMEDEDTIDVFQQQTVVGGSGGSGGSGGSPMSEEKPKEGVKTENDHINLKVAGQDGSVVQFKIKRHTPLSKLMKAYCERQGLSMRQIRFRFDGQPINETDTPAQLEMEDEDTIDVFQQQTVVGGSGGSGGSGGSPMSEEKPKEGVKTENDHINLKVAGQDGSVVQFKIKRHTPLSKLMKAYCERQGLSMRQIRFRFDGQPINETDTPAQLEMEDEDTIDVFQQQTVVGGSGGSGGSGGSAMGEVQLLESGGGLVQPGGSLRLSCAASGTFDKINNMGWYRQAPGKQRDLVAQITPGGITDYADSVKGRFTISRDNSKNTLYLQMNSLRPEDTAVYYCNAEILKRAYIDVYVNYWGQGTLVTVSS
T2 sequence (chain, as listed by the source): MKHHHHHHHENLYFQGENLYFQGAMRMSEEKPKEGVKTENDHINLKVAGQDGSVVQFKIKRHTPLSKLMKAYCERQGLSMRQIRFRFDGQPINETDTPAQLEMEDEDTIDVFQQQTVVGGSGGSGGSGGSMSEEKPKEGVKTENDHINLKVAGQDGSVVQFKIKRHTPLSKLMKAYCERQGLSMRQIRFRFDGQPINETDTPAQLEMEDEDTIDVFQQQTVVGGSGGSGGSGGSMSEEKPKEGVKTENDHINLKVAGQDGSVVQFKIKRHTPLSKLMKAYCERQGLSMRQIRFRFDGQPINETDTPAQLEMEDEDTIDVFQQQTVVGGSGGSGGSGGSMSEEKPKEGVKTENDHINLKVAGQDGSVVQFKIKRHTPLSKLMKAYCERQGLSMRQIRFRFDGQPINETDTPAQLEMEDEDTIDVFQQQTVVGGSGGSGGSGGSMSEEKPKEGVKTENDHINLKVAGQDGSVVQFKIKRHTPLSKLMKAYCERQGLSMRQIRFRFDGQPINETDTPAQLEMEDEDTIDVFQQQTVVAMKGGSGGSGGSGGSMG
T3 sequence (chain, as listed by the source): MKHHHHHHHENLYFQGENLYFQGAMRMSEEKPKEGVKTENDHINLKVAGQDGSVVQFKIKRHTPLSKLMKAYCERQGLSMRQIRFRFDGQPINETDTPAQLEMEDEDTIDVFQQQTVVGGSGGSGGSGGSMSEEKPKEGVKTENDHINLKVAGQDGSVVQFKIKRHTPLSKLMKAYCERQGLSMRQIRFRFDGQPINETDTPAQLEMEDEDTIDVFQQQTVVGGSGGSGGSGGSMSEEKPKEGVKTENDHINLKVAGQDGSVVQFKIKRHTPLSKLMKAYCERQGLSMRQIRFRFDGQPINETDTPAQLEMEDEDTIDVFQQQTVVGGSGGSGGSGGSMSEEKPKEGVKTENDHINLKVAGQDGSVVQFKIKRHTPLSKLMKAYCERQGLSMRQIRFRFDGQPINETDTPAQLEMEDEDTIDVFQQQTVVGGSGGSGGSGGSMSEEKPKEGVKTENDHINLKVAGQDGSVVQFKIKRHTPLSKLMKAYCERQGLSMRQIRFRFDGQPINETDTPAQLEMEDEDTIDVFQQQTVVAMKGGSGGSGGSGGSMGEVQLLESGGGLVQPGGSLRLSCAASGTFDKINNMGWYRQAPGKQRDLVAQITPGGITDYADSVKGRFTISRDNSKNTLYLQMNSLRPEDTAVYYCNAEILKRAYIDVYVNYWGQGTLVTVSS

B1: recombinant protein (SIM)6-R4L (ligand)
chain: MKHHHHHHHENLYFQGAMSSKVDVIDLTIESSSDEEEDPPAKRGGSGGSGGSGGSKVDVIDLTIESSSDEEEDPPAKRGGSGGSGGSGGSKVDVIDLTIESSSDEEEDPPAKRGAMKGGSGGSGGSGGSMSSKVDVIDLTIESSSDEEEDPPAKRGGSVGSGGSGGSKVDVIDLTIESSSDEEEDPPAKRGGSGGSGGRGGSKVDVIDLTIESSSDEEEDPPAKRGAMRCWGGSGGSGGSGGSMGMCYRKCRGGRRWCYQKCGGSGGSGGSGGS
modifications: Alexa594 label in the imaging experiment (site not stated)
notes: also called (SIM)6-R4L (Red)
Regarding B1, the binding result in assay [1] and in assay [2] was “binds” each time.

B2: recombinant protein (SIM)6-CNB (VHH)
chain: MKHHHHHHHENLYFQGAMSSKVDVIDLTIESSSDEEEDPPAKRGGSGGSGGSGGSKVDVIDLTIESSSDEEEDPPAKRGGSGGSGGSGGSKVDVIDLTIESSSDEEEDPPAKRGAMKGGSGGSGGSGGSMSSKVDVIDLTIESSSDEEEDPPAKRGGSVGSGGSGGSKVDVIDLTIESSSDEEEDPPAKRGGSGGSGGRGGSKVDVIDLTIESSSDEEEDPPAKRGAMRCWGGSGGSGGSGGSMGEVQLMESGGGLVQAGGSLRLSCAASGRTFNNYAMGWFRRAPKGEREFVAAITRSGVRSGVSAIYGDSVKDRFTISRDNAKNTLYLQMNSLKPEDTAVYTCAASAIGSGALRRFEYDYSGQGTQVTVSS
modifications: Alexa594 label in the imaging experiment (site not stated)
notes: Fusion of a multivalent domain with a nanobody; also called (SIM)6-CNB (Red)
Consider B2, for which the binding result in assay [3] and in assay [4] was “binds” in each case.

B3: recombinant protein (SIM)3-CNB (VHH)
chain: MKHHHHHHHENLYFQGAMKVDVIDLTIESSSDEEEDPPAKRGGSGGSGGSGGSMMKVDVIDLTIESSSDEEEDPPAKRGGSGGSGGSGGSMMKVDVIDLTIESSSDEEEDPPAKRGGSGGSGGSGGSMGEVQLMESGGGLVQAGGSLRLSCAASGRTFNNYAMGWFRRAPKGEREFVAAITRSGVRSGVSAIYGDSVKDRFTISRDNAKNTLYLQMNSLKPEDTAVYTCAASAIGSGALRRFEYDYSGQGTQVTVSS
modifications: Alexa594 label in the imaging experiment (site not stated)
notes: Fusion of a multivalent domain with a nanobody; also called (SIM)3-CNB (Red); fusion protein (SIM)3-CNB
In the case of B3, the binding result in assay [5] and in assay [6] was “binds” each time.
